Results on eleven sequences are retold here after the DeepSol protein solubility set.

The data set is described as follows: soluble on expression in E. coli; label from the status in PepcDB or PDB records.
With “MSLKTLSDDLYKQFSNFLAVQSGIVLGDNKQYLVKSRLSPLMTQFGIESLSDLVTRAMSVRERDLKMAVVDAMTTNETLWFRDTYPFQLLTDKIFPELGKSGRPIKIWSAASSSGQEPYSIAMTALEQQVKKPGTLPGGVQIVGTDISSTMLNQCKEGVYDSLALARGLSPERKKLFFEPYGDNKMRVVERVRKLTTFRPLNLLESYSLLGKFDIIFCRNVLIYFAPEVKSKILNQFAASLNPGGYLMLGASESLAGLTDRFEMIRCNPGIVYKVKEGHHHHHH”, the “soluble on expression in E. coli” value is “soluble”.
For “MALIRATLPVVEPGRTEIHLPHWDGIEQQHGFIHGGVVGMIADSAAGYAAMTLVPAEASVLTVEYKMNLMAPAEGERLIARGEVVRAGRTLIVTRAEVLALRDGAERLCALMQQTIMVMHARPEKLDAPPAALEHHHHHH”, the “soluble on expression in E. coli” value is listed as “not soluble”.
In the case of “MGSSHHHHHHSSGLVPRGSHMKPVLTVYTYDSFAADWGPGPVVKKAFEADCNCELKLVALEDGVSLLNRLRMEGKNSKADVVLGLDNNLLDAASKTGLFAKSGVAADAVNVPGGWNNDTFVPFDYGYFAFVYDKNKLKNPPQSLKELVESDQNWRVIYQDPRTSTPGLGLLLWMQKVYGDDAPQAWQKLAKKTVTVTKGWSEAYGLFLKGESDLVLSYTTSPAYHILEEKKDNYAAANFSEGHYLQVEVAARTAASKQPELAQKFLQFMVSPAFQNAIPTGNWMYPVANVTLPAGFEKLTKPATTLEFTPAEVAAQRQAWISEWQRAVSR” it was “soluble”; in that of “MISRPESSLSGLESSQEVQKKTWNPRNYSARLTENIGLPLILLEKHNPWPAYVAYISPAVTRITEKGWARDLEYIYAAEKNGKPVKRSKHSAVLLKRRKPSKPSELMLKETLSETMLPTWECSTIYVSPTFVPEPAQLQMDVREGPTSNYNKIIFSKRPAMRKLPFGLLQASKEMHTKD”, “soluble”; in that of “MFTLRELPFAKDSMGDFLSPVAFDFHHGKHHQTYVNNLNNLIKGTDFEKSSLFAILTKSSGGVFNNAAQIYNHDFYWDCLSPKATALSDELKGALEKDFGSLEKFKEDFIKSATTLFGSGWNWAAYNLDTQKIEIIQTSNAQTPVTDKKVPLLVVDVWEHAYYIDHKNARPVYLEKFYGHINWHFVSQCYEWAKKEGLGSVDYYINELVHKKL”, “soluble”.
Next, “MFRSVLVEAAVRVESPLLAHRLEDALLHACKQRFCSRILPSLGVCLTALRICKLVDGAGKQLALEIWPVEVSGGGLRARVHVELLLWSPLPHELAFAQVRSCSRFGIRLSILNGFDYAFVPPGSMPEPCTYHEEQRCWSWRFNEDDFVIGEGDWVRVLIERVEYATDSAMATFDSPGTVGSGPPLHILPPPVPVGRTVMETDQANATPGAHPEHAPPLETEPPEFWETPSILPLRVWARLDAPGLGPIDWWS”: “not soluble”.
Next, “MNPKIVFFDIDDTLYRKYTDTLRPSVKTAVAALRGKGILTALATGRSLATIPEKVRDMMAEAGMDAVVTINGQFALLHGKTVREVPMDAGLMGRVCAHLDGLGMDYAFVGGEGIAVSALSECVCRALKHIASDFFADKDYFSSKPVYQMLVFAEENEMPL”: “not soluble”.
As to “MGSDKIHHHHHHMFKNTFQSGFLSILYSIGSKPLQIWDKKVRNGHIKRITDNDIQSLVLEIEGTNVSTTYITCPADPKKTLGIKLPFLVMIIKNLKKYFTFEVQVLDDKNVRRRFRASNYQSTTRVKPFICTMPMRLDDGWNQIQFNLLDFTRRAYGTNYIETLRVQIHANCRIRRVYFSDRLYSEDELPAEFKLYLPVQNKAKQ”, the “soluble on expression in E. coli” value is listed as “not soluble”.
Next, “MQSFTADINEINITNGKLDFSDSSLTPKFSAGIYSLNGDITGLSSNEDSRAKIDLKGKVDKYAPVIIKGSVNPLSHDAFTDIDMLFNGIELTTFTPYSGKFAGYAIDKGKLSLGLNYKLSNNKLVAENNVTLDQLTLGEVVNSEEATSLPIKFALSLLEHHHHHH”: “not soluble”.
In the case of “SLAHVGTWDWDITNETLAWTDETYRIFGVKPQEFKATYEAFLFYIHADDRQAVIDAVNDAINNDSSYSIKHRVIRPSGEIREVLEKGQVLRDENGKASRIIGAVLDIT” it was “not soluble”; in that of “MAEEKFFLGRQPILDREQRLYGFELLFRSADSLHANVTDYLQASASVIFDALSSFGFREILGKHKGFINVNADVLMSEALELLPPEKVVIELLEHVPITETVISRCHELREKGFSLALDDHIYEPVYEPLYHLVDVIKVDLFRTGMENLASEVETLRKWNTKLLAEKVETVEQYERCADLGFTYFQGYYFARP”, “not soluble”.
